Results as given in publication PMC10651883, “M. mazei glutamine synthetase and glutamine synthetase-GlnK1 structures reveal enzyme regulation by oligomer modulation” (Nature Communications, 2023).
Where a chain is given by its changes, count along the chain named. Numbers in names are those of the source.

Experiments:
Mm GS = biological target: T1, Mm GS (Methanosarcina mazei, UniProt Q8PY99); test: cryo-EM structure, […] A; assay type: binding; settings: formed in situ from ATP; with Met-Sox-P; 5 mM MgCl2, pH 7.5; active site
T1 construct: gene glnA1; labile dodecamer (two hexamer rings), active site between two subunits; catalytic residues Asp57, Glu307

[1] = biological target: the molecule itself; test: cryo-EM structure; apo Mm GS at ~20 uM (1.0 mg/mL), 12.5 mM Tris pH 7.5, 5 mM MgCl2, 150 mM NaCl, 2.5% glycerol, 1 mM bME; dodecamer and partial oligomer from one dataset
[2] = biological target: the molecule itself; test: mass photometry; protein at 75 nM final, 20 mM Tris pH 7.5, 150 mM NaCl, room temperature; Refeyn OneMP; four measurements
[3] = biological target: the molecule itself; test: crystal structure; Mm GS(R167L-A168G), 35% PEG 200, 0.1 M sodium citrate pH 5.5; three subunits in the asymmetric unit, symmetry generates the dodecamer
[4] = biological target: the molecule itself; test: crystal structure; Mm GS-GlnK1 complex formed by mixing ~2:1 (excess GlnK1) and SEC; 30% PEG 400, 0.1 M sodium cacodylate pH 6.5, 0.1 M LiSO4
[5] = biological target: T2, Methanosarcina mazei glutamine synthetase (Methanosarcina mazei), Q8PY99; test: fluorescence polarisation; apparent; GS titrated to saturation into 1 nM Fluorescein-12-ATP, then GlnK1 titrated in; 25 mM Tris pH 7.5, 100 mM NaCl, 1 mM MgCl2; settings: remark: other sources report otherwise
T2 chain: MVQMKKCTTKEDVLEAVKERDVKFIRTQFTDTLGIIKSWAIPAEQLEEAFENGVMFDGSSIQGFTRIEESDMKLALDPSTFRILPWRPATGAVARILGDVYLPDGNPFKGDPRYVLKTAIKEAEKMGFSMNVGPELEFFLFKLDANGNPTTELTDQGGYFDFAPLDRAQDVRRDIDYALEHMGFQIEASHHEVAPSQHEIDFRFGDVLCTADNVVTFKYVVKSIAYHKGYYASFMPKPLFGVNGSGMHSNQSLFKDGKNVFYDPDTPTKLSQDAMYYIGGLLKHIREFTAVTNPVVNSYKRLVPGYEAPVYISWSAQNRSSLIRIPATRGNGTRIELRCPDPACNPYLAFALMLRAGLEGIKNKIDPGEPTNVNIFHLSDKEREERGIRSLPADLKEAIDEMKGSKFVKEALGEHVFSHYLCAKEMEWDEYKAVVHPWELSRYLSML

Question: With Nc1ncnc2c1ncn2[C@@H]1O[C@H](COP(=O)(O)OP(=O)(O)O)[C@@H](O)[C@H]1O [ADP] as the molecule, how does the “cryo-EM structure, 2.7 A” value (Mm GS) read?
Answer: In the Mm GS TS structure, the ADP is anchored into the active site pocket

B1: Methanosarcina mazei glutamine synthetase (enzyme)
chain: T2 chain
notes: glutamine synthetase (GS) of Methanosarcina mazei; gene bought from Genscript, in pET15b; Oligomeric state depends on concentration: dimers at 75 nM, dodecamers and partial oligomers at about 20 uM (1 mg/mL); also called Mm GS; WT Mm GS; source: E. coli C41(DE3), purified (cobalt NTA TALON)
Question: For B1, which “stoichiometry N” value [1] is on record?
Answer: 12

Question: And the “stoichiometry N” value [2]?
Answer: 2

B2: Mm GS(R167L-A168G) (enzyme, Methanosarcina mazei)
chain: T2 chain with R167L, A168G
notes: glutamine synthetase (GS) of Methanosarcina mazei with R167L and A168G; gene bought from Genscript, in pET15b; everywhere else R167L; also called mutant Mm GS; source: E. coli C41(DE3), purified (cobalt NTA TALON)
Question: B2 was tested. Which “stoichiometry N” value [3] did it give?
Answer: 12

B3: Bacillus subtilis glutamine synthetase (enzyme)
chain: AKYTREDIEKLVKEENVKYIRLQFTDILGTIKNVEIPVSQLGKALDNKVMFDGSSIEGFVRIEESDMYLYPDLNTFVIFPWTAEKGKVARFICDIYNPDGTPFEGDPRNNLKRILKEMEDLGFSDFNLGPEPEFFLFKLDEKGEPTLELNDKGGYFDLAPTDLGENCRRDIVLELEEMGFEIEASHHEVAPGQHEIDFKYAGAVRSCDDIQTFKLVVKTIARKHGLHATFMPKPLFGVNGSGMHCNLSLFKNGVNAFFDENADLQLSETAKHFIAGIVKHATSFTAVTNPTVNSYKRLVPGYEAPCYVAWSAQNRSPLIRIPASRGISTRVEVRSVDPAANPYLALSVLLAAGLDGIKNKLEAPAPIDRNIYVMSKEERMENGIVDLPATLAEALEEFKSNEVMVKALGEHLFEHFIEAKEIEWDMFRTQVHPWEREQYMSQY
notes: glutamine synthetase (GS) of Bacillus subtilis; also called Bs GS; apo Bs GS
Question: With B3 as the molecule, how does the “stoichiometry N” value [2] read?
Answer: 12

B4: Methanosarcina mazei GlnK1 (natural protein)
chain: MVAMKYVIAMIRPERLDAVKRELQKIEVSRLTVSSVSGYGAQKGYMEIYRAMEYDANLLEKIKIEIAVNDEFLEPTIEAIKTGAKGSDGYVGSGKIFVLPLENVIRIRTNETGPEAI
notes: GlnK1, PII family nitrogen regulatory protein of Methanosarcina mazei; gene bought from Genscript, in pET15b; Trimer in the crystal structure of the complex with GS; also called Mm GlnK1; WT GlnK1; source: E. coli C41(DE3), purified (cobalt NTA TALON)
Question: B4 was tested. Which “stoichiometry N” value [4] did it give?
Answer: 3

Question: What about the Kd [5] of the same molecule?
Answer: 6.4 µM
